Assay results from US20230038638A1, “COMPLEMENT FACTOR I-RELATED COMPOSITIONS AND METHODS” (published 2023).
Residue numbers refer to the chain shown, from its start.

Experiments:
[1] = biological target: soluble human C3b (human) (UniProt P01024)
human C4b (human) [2] = biological target: T1, human C4b (human) (UniProt P0C0L5)
T1 sequence: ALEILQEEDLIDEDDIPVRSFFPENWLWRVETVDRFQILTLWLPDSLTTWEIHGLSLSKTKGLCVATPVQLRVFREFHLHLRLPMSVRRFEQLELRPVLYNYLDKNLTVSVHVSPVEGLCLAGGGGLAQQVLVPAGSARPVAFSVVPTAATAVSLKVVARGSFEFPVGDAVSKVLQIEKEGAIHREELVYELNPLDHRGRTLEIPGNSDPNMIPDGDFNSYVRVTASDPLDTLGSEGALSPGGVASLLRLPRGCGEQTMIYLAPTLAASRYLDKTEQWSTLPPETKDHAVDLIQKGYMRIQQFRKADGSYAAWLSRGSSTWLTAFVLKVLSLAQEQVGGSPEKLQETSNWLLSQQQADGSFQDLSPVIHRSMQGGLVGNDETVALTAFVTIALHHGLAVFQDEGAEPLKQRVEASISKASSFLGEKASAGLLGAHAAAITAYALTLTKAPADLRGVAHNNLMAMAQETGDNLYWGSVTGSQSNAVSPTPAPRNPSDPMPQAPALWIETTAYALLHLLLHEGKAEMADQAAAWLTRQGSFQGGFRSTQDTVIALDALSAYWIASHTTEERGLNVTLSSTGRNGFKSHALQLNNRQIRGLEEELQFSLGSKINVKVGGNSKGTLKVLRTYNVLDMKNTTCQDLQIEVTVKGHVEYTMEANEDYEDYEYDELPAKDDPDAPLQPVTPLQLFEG

[3] = biological target: soluble human C3b (human) (UniProt P01024); remark: listed apart in the source
human C4b (human) [4] = biological target: T2, human C4b (human) (UniProt P0C0L4)
T2 sequence: T1 sequence with T151A, G317D, L364P, S365C, I368L, H369D, S420N, A451V, R454L, A530S

human C4b (human) [5] = biological target: T2, human C4b (human); remark: listed apart in the source
human C4b (human) [6] = biological target: T1, human C4b (human); remark: listed apart in the source
C3b = C3b (human, UniProt P01024)

| Substance | iC3b EC50 [1] | C4c EC50 (human C4b (human) [2]) | iC3b Screen Ref Fold (fold of CFI-HSA wild type) [3] | C4b Screen Ref Fold (fold of CFI-HSA wild type) (human C4b (human) [4]) | also measured |
| --- | --- | --- | --- | --- | --- |
| CFI-HSA variant N531G; E461Q; N422K (enzyme) | 3.7 nM | 7.2 nM | 1.81 | 4.01 | – |
| CFI-HSA variant D425K; E530F (enzyme) | 5.8 nM | > 1000 nM | 2.17 | 0.08 | – |
| CFI-HSA variant N531G; E457G; T377G (enzyme) | 4.5 nM | 2.9 nM | 1.54 | 4.33 | – |
| CFI-HSA variant D425R; E530F; E457G; E461Q; N531G (enzyme) | 3.2 nM | 6.2 nM | 0.99 | 4.48 | – |
| CFI-HSA variant R557A; N531M; Y403F; K504Y; E457G; E461Q (enzyme) | 79.4 nM | 26.3 nM | 0.21 | 3.97 | – |
| CFI-HSA variant Y563H (enzyme) | 24.6 nM | – | 0.73 | – | C4c EC50 (nM) (human C4b (human) [5]): 855 nM; iC3b Screen Ref Fold (fold of reference) [3]: 1.4; C4b Screen Ref Fold (fold of CFI-HSA wild type) (human C4b (human) [6]): 0.65; C4b Screen Ref Fold (fold of reference) (human C4b (human) [4]): 1.03 |
| CFI-HSA variant D425R; E530F; P558G; E457G; E461Q; N531G (enzyme) | – | 5 nM | 0.87 | 4.13 | – |
| CFI-HSA variant R557A; N531M (enzyme) | 288 nM | 78.7 nM | 0.09 | 2.91 | – |
| CFI-HSA variant D425K; E530F; E457G; E461Q; N531G (enzyme) | 3.4 nM | 6.4 nM | 1.08 | 4.4 | – |
| CFI-HSA variant N531G; E461Q; N422K; T377G (enzyme) | 2.4 nM | 5 nM | 1.7 | 4.24 | – |
| CFI-HSA variant D425K; Y408M (enzyme) | 9.4 nM | > 1000 nM | 1.88 | 0.19 | – |
| CFI-HSA variant D425K; Y408M; F537K (enzyme) | 10.8 nM | > 1000 nM | 1.52 | 0.09 | – |
| CFI-HSA variant D425K; P558S (enzyme) | 7 nM | 153 nM | 2.11 | 0.77 | – |
| CFI-HSA variant E461Q; N422K; T377G (enzyme) | 3.6 nM | 7.9 nM | 2.75 | 3.96 | – |
| CFI-HSA variant S507A (active site mutant) (enzyme) | – | – | – | – | C3b cleavage, % Activity (C3b): 0% |
| CFI-HSA variant 514-MDANNVT (SEQ ID NO: 13)-520 → NG (hTrypsin 200-loop swap) (enzyme) | – | – | – | – | C3b cleavage, % Activity (C3b): 11% |
| CFI-HSA variant K504R; D425R; E530F; E457G; E461Q; N531G (enzyme) | – | 7.4 nM | 1.18 | 4.2 | – |
| CFI-HSA variant R557A; N531M; Y403F; K504Y (enzyme) | 334 nM | 76.3 nM | 0.03 | 3.28 | – |
| CFI-HSA variant T377G; N422K (enzyme) | 4.1 nM | 37.4 nM | 2.55 | 2.25 | – |
| CFI-HSA variant E457G-E461Q-F464Y (enzyme) | – | – | – | – | C3b cleavage, % Activity (C3b): 106% |
| CFI-HSA variant E457G; N422K; T377G (enzyme) | 3.5 nM | 7.5 nM | 2.99 | 4.25 | – |

| Substance | iC3b EC50 [1] | C4c EC50 (human C4b (human) [2]) | iC3b Screen Ref Fold (fold of CFI-HSA wild type) [3] | C4b Screen Ref Fold (fold of CFI-HSA wild type) (human C4b (human) [4]) | also measured |
| --- | --- | --- | --- | --- | --- |
| CFI-HSA variant R557A; N531G; Y403F; K504Y; E457G; E461Q (enzyme) | 38.2 nM | 22.4 nM | 0.36 | 4.28 | – |
| CFI-HSA variant N531G; E457G; N422K; T377G (enzyme) | 3.2 nM | 4.2 nM | 1.28 | 4.39 | – |
| CFI-HSA variant R557K; N531M (enzyme) | – | 124 nM | 0.41 | 2.93 | – |
| CFI-HSA variant D425K; E457G; E461Q; N531G (enzyme) | 2.5 nM | – | 2.07 | 4.26 | C4c EC50 (nM) (human C4b (human) [5]): 6 nM; iC3b Screen Ref Fold (fold relative to CFI-HSA wild type) [3]: 0.09; C4b Screen Ref Fold (fold relative to CFI-HSA wild type) (human C4b (human) [6]): 3.28 |
| CFI-HSA variant M220A + K221Q (enzyme) | – | – | – | – | C3b cleavage, % Activity (C3b): 92% |
| CFI-HSA variant N531G; N422K; T377G (enzyme) | 3.3 nM | 6.8 nM | 2.74 | 3.88 | – |
| CFI-HSA variant D26A (enzyme) | – | – | – | – | C3b cleavage, % Activity (C3b): 94%; iC3b Screen Ref Fold (fold vs CFI-HSA wild type) [3]: 0.34 |
| CFI-HSA variant E457G; E461Q; N422K; T377G (enzyme) | 2.2 nM | 5 nM | 1.74 | 4.28 | – |
| CFI-HSA variant D425K; Y408M; K504R (enzyme) | 14.6 nM | > 1000 nM | 1.57 | 0.1 | – |
| CFI-HSA variant Δ(K1-P305) (HSA-SPD) (enzyme) | – | – | – | – | C3b cleavage, % Activity (C3b): 35% |
| CFI-HSA variant N422K; E461Q (enzyme) | 4.1 nM | 51.1 nM | 2.67 | 2.54 | – |
| CFI-HSA variant E530F; P558S; E457G; E461Q; N531G (enzyme) | 4.8 nM | 9.1 nM | – | – | – |
| CFI-HSA variant K504R; D425R; P558G; E457G; E461Q; N531G (enzyme) | – | 4.8 nM | 1.58 | 4.14 | – |
| CFI-HSA variant K504R; E530F; P558G; E457G; E461Q; N531G (enzyme) | – | 8.2 nM | 1.77 | 3.96 | – |
| CFI-HSA variant N531G; E461Q; T377G (enzyme) | 4.9 nM | 5 nM | 2.28 | 4.1 | – |
| CFI-HSA variant S250L (enzyme) | – | – | – | – | C3b cleavage, % Activity (C3b): -4%; iC3b Screen Ref Fold (fold vs CFI-HSA wild type) [3]: 0.09 |
| CFI-HSA variant D425R; P558S; E457G; E461Q; N531G (enzyme) | 4 nM | 4.6 nM | 1.29 | 4.41 | – |
| CFI-HSA variant E457G; E461Q; N422K (enzyme) | 3.5 nM | 17.2 nM | 2.37 | 3.61 | – |
| CFI-HSA variant T377G; N422K; E457G; E461Q; N531G (enzyme) | 3.7 nM | 3.5 nM | 0.78 | 3.92 | – |
| CFI-HSA variant R557A; N531D; Y403F; K504Y (enzyme) | 156 nM | 38.6 nM | 0.11 | 3.81 | – |
